Here are results for 3 molecules from patent US20240067747A1 (SHANGHAI HUAOTA BIOPHARMACEUTICAL, published 2024).

Assay [1] concerns the target T1, human CD73 on the cell surface of CHOK1-huCD73-3F4 cells (Huabo Biopharm) (human, UniProt P21589 27-549).
T1 sequence (looked up): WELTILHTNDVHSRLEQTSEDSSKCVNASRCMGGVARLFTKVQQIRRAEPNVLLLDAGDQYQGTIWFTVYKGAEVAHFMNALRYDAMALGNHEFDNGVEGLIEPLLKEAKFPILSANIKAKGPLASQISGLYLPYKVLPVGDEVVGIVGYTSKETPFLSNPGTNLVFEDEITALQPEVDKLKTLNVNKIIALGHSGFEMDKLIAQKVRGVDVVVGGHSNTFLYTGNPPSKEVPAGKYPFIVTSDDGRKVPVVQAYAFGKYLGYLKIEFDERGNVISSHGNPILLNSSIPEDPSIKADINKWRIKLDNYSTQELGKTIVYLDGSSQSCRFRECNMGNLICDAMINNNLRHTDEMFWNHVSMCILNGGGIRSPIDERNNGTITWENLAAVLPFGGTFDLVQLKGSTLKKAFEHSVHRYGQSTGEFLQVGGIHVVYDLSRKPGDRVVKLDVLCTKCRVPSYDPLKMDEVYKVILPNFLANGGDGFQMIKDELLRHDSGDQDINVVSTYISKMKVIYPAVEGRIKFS
Kind of assay: cell-based or functional assay.

Assay [2] addresses T1, human CD73 on the cell surface of …. Kind of assay: flow cytometry on CHOK1-huCD73-3F4 cells, PE-goat anti-human-Fc. As for the experimental part: All antigen-binding proteins were diluted to 30 μg/ml with 1% BSA in PBS solution (1% BSA/PBS) and then 3-fold diluted for 11 gradients. The diluted antigen-binding proteins were added to a 96-well U-shaped plate at 20 μL per well; and a negative control (with 1% BSA/PBS added only) was set up at the same time. The suspension of cells (CHOK1-huCD73-3F4, Huabo Biopharm) expressing human CD73 during the logarithmic growth phase were centrifuged (1000 rpm×5 min) to discard the culture medium; and the cells were resuspended with 1% BSA/PBS until the density of viable cells was 1×10⁶/mL, and were added, at 20 μL (2×10⁴ cells) per well, to the 96-well U-shaped plate with the […] antigen-binding protein to react for 30 min at room temperature. After reaction, the 96-well U-shaped plate was resuspended with 1% BSA/PBS, centrifuged (300 g×3 min) to discard the supernatant, and washed once in such a way. PE-goat anti-human-Fc (Jackson ImmunoResearch, #109-115098) diluted at 1:200 was added to react for 15 min in the dark at room temperature. After reaction, the 96-well U-shaped plate was resuspended with 1% BSA/PBS, centrifuged (300 g×3 min) to discard the supernatant, washed three times in such a way, and finally resuspended with 100 μL of 1% BSA/PBS for each wall; and the fluorescence intensity of a PE channel was detected with a flow cytometer (BD, #Cantoll).
(Flow cytometry measures light scatter and fluorescence of single cells or particles in a stream.)

The target of assay [3] is T2, Human CD73 (as used in the hybridoma screening of Table 1) (human, UniProt P21589 27-549, limits assumed).
T2 sequence (looked up): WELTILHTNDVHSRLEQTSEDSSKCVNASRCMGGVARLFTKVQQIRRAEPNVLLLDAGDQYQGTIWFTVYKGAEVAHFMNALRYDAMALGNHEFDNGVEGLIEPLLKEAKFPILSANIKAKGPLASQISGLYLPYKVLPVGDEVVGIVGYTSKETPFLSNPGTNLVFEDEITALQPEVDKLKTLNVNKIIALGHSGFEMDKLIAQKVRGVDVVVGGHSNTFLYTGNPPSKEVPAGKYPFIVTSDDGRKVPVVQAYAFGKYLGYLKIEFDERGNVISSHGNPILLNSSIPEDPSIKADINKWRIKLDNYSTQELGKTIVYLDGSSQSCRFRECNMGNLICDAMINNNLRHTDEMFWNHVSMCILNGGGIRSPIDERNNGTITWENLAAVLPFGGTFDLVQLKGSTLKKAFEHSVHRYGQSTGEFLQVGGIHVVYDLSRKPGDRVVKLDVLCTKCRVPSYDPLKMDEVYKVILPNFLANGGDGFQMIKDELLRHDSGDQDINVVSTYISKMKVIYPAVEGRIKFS
Kind of assay: Biacore affinity screen of hybridoma clones.

Assay [4] has as its target T1, human CD73 on the cell surface of …. Kind of assay: cell-based or functional assay. This is another data set of the same source.

Where two headings read alike, the source gives them in different places.

B1: 900584 (screened antigen-binding protein targeting CD73) (antibody, V domains shown)
VH: QVQVQQPGTELVKPGASVKLSCKASGYTFTGYWMHWVKQRPGQGLEWIGMIHPNSGSTYYNEKFKSKATLTVDRSSSTAYMQLSSLSSEDSAVYYCARYYGTTYEWYFDVWGTGTTVTVSS
VL: DIQMTQTTSSLSASLGDRVTISCRASQDISNYLNWYQQKPDGTVKPLIYYTSSLHSGVPSRFSGSGSGTDYSLTISDLEHEDIATYFCQQGYTLPFTFGGGTKLEIK
notes: It was detected with PE-goat anti-human-Fc
As for B1, the “EC50 of inhibition of the enzyme activity of CD73 on cell membrane (AMP/ATP, CellTiter-Glo)” value in assay [1] was found to be 11.1 µg/mL. In addition, the EC50 in assay [2] was 2.9 µg/mL.

B2: 124A9 murine monoclonal antigen-binding protein (hybridoma clone 124A9) (antibody, V domains shown)
VH: QVQLQQPGAELVKPGASVKLSCKASGYTFTSYWIHWVKQRPGQGLDWIGMIHPNSGSTYYNEKFKSKATLTVDKSSSTAYMQLSSLTSEDSAVYYCARYYGSDYEWYFDVWGTGTTVTVSS
VL: DIVMTQSQKFMSTSVGDRVSITCKASQNVRTAVVWYQQNPGQSPKALIYLASNRHTGVPDRFTGSGSGTDFTLTISNVHSEDLADYFCLQHWNYPYTFGGGTKLEIK
For the molecule B2, binding in assay [3] was characterised by a dissociation constant (Kd) of 2.16 nM.

B3: 900759 (Oleclumab antibody sourced from MedImmune, MEDI 9447) (antibody, human IgG1, lambda, L234A L235A, V domains shown)
VH: EVQLLESGGGLVQPGGSLRLSCAASGFTFSSYAYSWVRQAPGKGLEWVSAISGSGGRTYYADSVKGRFTISRDNSKNTLYLQMNSLRAEDTAVYYCARLGYGRVDEWGRGTLVTVSS
VL: QSVLTQPPSASGTPGQRVTISCSGSLSNIGRNPVNWYQQLPGTAPKLLIYLDNLRLSGVPDRFSGSKSGTSASLAISGLQSEDEADYYCATWDDSHPGWTFGGGTKLTVLG
On to B3, for which, in assay [4], the “EC50 of inhibition of the enzyme activity of CD73 on cell membrane (AMP/ATP, CellTiter-Glo)” value came to 0.0417 µg/mL.

What is called EC50 is the concentration that produces a half-maximal response. What is called Kd is the concentration at which binding is half-saturated. High values mean weaker binding, low ones tighter binding.
